Consider 81 variants from the supplement of paper PMC7125110.

± gives the standard error. This sample holds only a part of the variants without activity.

The chains are these.
B1: glmS ribozyme (parent)
chain: AUAAAAGCGCCAGAACUACAGAAAUGUAGUUGACGAGGAGGAGGUUUAUCGAAUUUUCGGCGGAUGCCUCCAAA

Variants of B1 are the subject of the first data set. In words: self-cleavage kobs at 2500 uM GlcN6P; higher = faster cleavage; RNA array. The following applies: with glucosamine-6-phosphate. The method in brief: (§1)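 Ribozyme variants carrying barcodes were transcribed in situ on sequenced MiSeq chips by E. coli RNA polymerase and tracked at 37 °C with a hybridised Cy3 probe. They were exposed to 40 μM to 10 mM glucosamine-6-phosphate in HEPES/KCl/Mg(OAc)2 buffer. kobs came from exponential decay fits of normalised per-tile medians, and kcat and KM from weighted Michaelis–Menten fits.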
Turning to C50G U57C C71G, the “self-cleavage kobs at 2500 uM GlcN6P” value is 0.000255 ± 0.00012 s⁻¹.

Regarding A6G A12C U56G, the “self-cleavage kobs at 2500 uM GlcN6P” value was found to be 5.25e-05 ± 2.1e-05 s⁻¹.

With C34A A42U U47A, the “self-cleavage kobs at 2500 uM GlcN6P” value is under 1e-05 s⁻¹.

G32U C50U: the “self-cleavage kobs at 2500 uM GlcN6P” value was under 1e-05 s⁻¹.

On to C11U A15U G41C, for which the “self-cleavage kobs at 2500 uM GlcN6P” value was under 1e-05 s⁻¹.

For A12G U54C U65G, the “self-cleavage kobs at 2500 uM GlcN6P” value was 3.01e-05 ± 1.2e-05 s⁻¹.

With A12U U30G U49C, the “self-cleavage kobs at 2500 uM GlcN6P” value is under 1e-05 s⁻¹.

In the case of A6G C61A C71U, the “self-cleavage kobs at 2500 uM GlcN6P” value was under 1e-05 s⁻¹.

Consider A39G G43C A52C, for which the “self-cleavage kobs at 2500 uM GlcN6P” value was under 1e-05 s⁻¹.

As for U47A A53U U65A, the “self-cleavage kobs at 2500 uM GlcN6P” value was 0.00126 ± 0.00036 s⁻¹.

Turning to A14U C16U U47G C58U G60A U69G, the “self-cleavage kobs at 2500 uM GlcN6P” value turned out to be 0.000102 ± 2.6e-05 s⁻¹.

For G51A A53C G62C, the “self-cleavage kobs at 2500 uM GlcN6P” value is under 1e-05 s⁻¹.

Turning to A15G G29U U47G U54A, the “self-cleavage kobs at 2500 uM GlcN6P” value is 0.000248 ± 6.2e-05 s⁻¹.

Consider A12C U46C C70A, for which the “self-cleavage kobs at 2500 uM GlcN6P” value came to 3.42e-05 ± 1.2e-05 s⁻¹.

Regarding A15C A42G C67U, the “self-cleavage kobs at 2500 uM GlcN6P” value is 0.000389 ± 9.9e-05 s⁻¹.

As to A39G A42U C67U, the “self-cleavage kobs at 2500 uM GlcN6P” value was determined as 9.25e-05 ± 2.6e-05 s⁻¹.

Consider G35C U46G U56A, for which the “self-cleavage kobs at 2500 uM GlcN6P” value was under 1e-05 s⁻¹.

Consider G7C A14C G35C U57G, for which the “self-cleavage kobs at 2500 uM GlcN6P” value is under 1e-05 s⁻¹.

For G7C C11U C34G U49G, the “self-cleavage kobs at 2500 uM GlcN6P” value was under 1e-05 s⁻¹.

For the variant A15U G44C A53U C58G C70U, the “self-cleavage kobs at 2500 uM GlcN6P” value is under 1e-05 s⁻¹.

In the case of G29C G40C U54A, the “self-cleavage kobs at 2500 uM GlcN6P” value was determined as 6.31e-05 ± 2.5e-05 s⁻¹.

Take G29U C50U C61U: the “self-cleavage kobs at 2500 uM GlcN6P” value was under 1e-05 s⁻¹.

Take G32U A64G G66A: the “self-cleavage kobs at 2500 uM GlcN6P” value is 0.000236 ± 5.9e-05 s⁻¹.

In the case of C34U G35A G44C U54A U65G, the “self-cleavage kobs at 2500 uM GlcN6P” value is under 1e-05 s⁻¹.

C8A C10U G35A G38A C68U: the “self-cleavage kobs at 2500 uM GlcN6P” value was determined as 4.94e-05 ± 1.7e-05 s⁻¹.

As for G41C G51U U69C, the “self-cleavage kobs at 2500 uM GlcN6P” value was under 1e-05 s⁻¹.

A6U C50A G51U: the “self-cleavage kobs at 2500 uM GlcN6P” value was under 1e-05 s⁻¹.

For the variant C8A G40C C67A, the “self-cleavage kobs at 2500 uM GlcN6P” value was under 1e-05 s⁻¹.

Turning to C16A A33U A52U, the “self-cleavage kobs at 2500 uM GlcN6P” value is under 1e-05 s⁻¹.

Turning to C10G G41C G51A C61G, the “self-cleavage kobs at 2500 uM GlcN6P” value is under 1e-05 s⁻¹.

As to U45G C50U U56G G59C, the “self-cleavage kobs at 2500 uM GlcN6P” value was under 1e-05 s⁻¹.

As for C34A G35A C67G C68A C71A, the “self-cleavage kobs at 2500 uM GlcN6P” value turned out to be 0.000155 ± 6.4e-05 s⁻¹.

As for U54G C61U C70U, the “self-cleavage kobs at 2500 uM GlcN6P” value was 5.89e-05 ± 1.4e-05 s⁻¹.

With U31A G35C A39U C67A C70U, the “self-cleavage kobs at 2500 uM GlcN6P” value is under 1e-05 s⁻¹.

Consider A15C C34G U57A, for which the “self-cleavage kobs at 2500 uM GlcN6P” value is under 1e-05 s⁻¹.

With G44A U49A G62U, the “self-cleavage kobs at 2500 uM GlcN6P” value is under 1e-05 s⁻¹.

On to C16G G43A A48U, for which the “self-cleavage kobs at 2500 uM GlcN6P” value is under 1e-05 s⁻¹.

For G37C G41U A48C, the “self-cleavage kobs at 2500 uM GlcN6P” value is under 1e-05 s⁻¹.

In the case of G7C G35C A48C C58U, the “self-cleavage kobs at 2500 uM GlcN6P” value was under 1e-05 s⁻¹.

With U31A G38U G51A, the “self-cleavage kobs at 2500 uM GlcN6P” value was under 1e-05 s⁻¹.

For the variant C10U G35C G51U U56G G62U, the “self-cleavage kobs at 2500 uM GlcN6P” value was under 1e-05 s⁻¹.

In the case of G9U G63C G66U C70A, the “self-cleavage kobs at 2500 uM GlcN6P” value is under 1e-05 s⁻¹.

A6C A36U G37C A39U: the “self-cleavage kobs at 2500 uM GlcN6P” value was under 1e-05 s⁻¹.

Consider G40U A53G U65C, for which the “self-cleavage kobs at 2500 uM GlcN6P” value came to 4.92e-05 ± 1.4e-05 s⁻¹.

As to G13U U47G U54A G62A, the “self-cleavage kobs at 2500 uM GlcN6P” value was under 1e-05 s⁻¹.

As for A12G G43C U45C C61G, the “self-cleavage kobs at 2500 uM GlcN6P” value is under 1e-05 s⁻¹.

As to G9A G35C A64C C71U, the “self-cleavage kobs at 2500 uM GlcN6P” value is under 1e-05 s⁻¹.

Turning to C10G A14U G32U C61A G63A, the “self-cleavage kobs at 2500 uM GlcN6P” value was under 1e-05 s⁻¹.

For the variant A33G A42U C70U, the “self-cleavage kobs at 2500 uM GlcN6P” value is under 1e-05 s⁻¹.

With G26U C58U, the “self-cleavage kobs at 2500 uM GlcN6P” value is 6.46e-05 ± 1.7e-05 s⁻¹.

For the variant C34U G63U A64G, the “self-cleavage kobs at 2500 uM GlcN6P” value was determined as 0.000111 ± 3.8e-05 s⁻¹.

C50U A64U C71U: the “self-cleavage kobs at 2500 uM GlcN6P” value was under 1e-05 s⁻¹.

On to A36G A52U A64G, for which the “self-cleavage kobs at 2500 uM GlcN6P” value is under 1e-05 s⁻¹.

On to A52G U54G C68G, for which the “self-cleavage kobs at 2500 uM GlcN6P” value stood at 7.13e-05 ± 2.9e-05 s⁻¹.

Take G13A G35A A42U: the “self-cleavage kobs at 2500 uM GlcN6P” value was under 1e-05 s⁻¹.

Turning to G7U G35U C50U, the “self-cleavage kobs at 2500 uM GlcN6P” value is under 1e-05 s⁻¹.

Take A42U U56A U69G: the “self-cleavage kobs at 2500 uM GlcN6P” value was 0.00299 ± 0.00059 s⁻¹.

Turning to C16A G37U C61G U69G, the “self-cleavage kobs at 2500 uM GlcN6P” value came out at 5.77e-05 ± 1.7e-05 s⁻¹.

For C8G G13U A39U C68G, the “self-cleavage kobs at 2500 uM GlcN6P” value is under 1e-05 s⁻¹.

As to G41C A42G U55A, the “self-cleavage kobs at 2500 uM GlcN6P” value turned out to be 9.68e-05 ± 2.6e-05 s⁻¹.

In the case of G35U U49C C50U C58G C61U, the “self-cleavage kobs at 2500 uM GlcN6P” value is under 1e-05 s⁻¹.

C11A A33G G35U A52G: the “self-cleavage kobs at 2500 uM GlcN6P” value is under 1e-05 s⁻¹.

Turning to A15C C16G U31A A53G C58A, the “self-cleavage kobs at 2500 uM GlcN6P” value was 4.06e-05 ± 1.5e-05 s⁻¹.

C8G G9A A14U U31G A39C U47A A64G C70U: the “self-cleavage kobs at 2500 uM GlcN6P” value is under 1e-05 s⁻¹.

Turning to C10A A36C C50G, the “self-cleavage kobs at 2500 uM GlcN6P” value was 0.000367 ± 0.00015 s⁻¹.

Regarding A6C A12G A15G, the “self-cleavage kobs at 2500 uM GlcN6P” value was under 1e-05 s⁻¹.

With U30C G37C G38C, the “self-cleavage kobs at 2500 uM GlcN6P” value is under 1e-05 s⁻¹.

A6G U30C C34U: the “self-cleavage kobs at 2500 uM GlcN6P” value was under 1e-05 s⁻¹.

As to A14C U31G A39G G66U, the “self-cleavage kobs at 2500 uM GlcN6P” value amounted to 0.00126 ± 0.00036 s⁻¹.

As for U31G G44C G59C, the “self-cleavage kobs at 2500 uM GlcN6P” value is under 1e-05 s⁻¹.

Consider G32U G35A A64G C71U, for which the “self-cleavage kobs at 2500 uM GlcN6P” value is under 1e-05 s⁻¹.

U30G C58G G60U: the “self-cleavage kobs at 2500 uM GlcN6P” value was under 1e-05 s⁻¹.

Take A52U G59U A64U C70U: the “self-cleavage kobs at 2500 uM GlcN6P” value was under 1e-05 s⁻¹.

As to A12U C34A A48U, the “self-cleavage kobs at 2500 uM GlcN6P” value is under 1e-05 s⁻¹.

As to A14G U56G C71U, the “self-cleavage kobs at 2500 uM GlcN6P” value was determined as 0.0458 ± 0.019 s⁻¹.

Take A42U U45C A52G C70U: the “self-cleavage kobs at 2500 uM GlcN6P” value is under 1e-05 s⁻¹.

Take G9C C34U A53U: the “self-cleavage kobs at 2500 uM GlcN6P” value was under 1e-05 s⁻¹.

Consider G13U A48C C61A, for which the “self-cleavage kobs at 2500 uM GlcN6P” value was under 1e-05 s⁻¹.

C8G A52G U55G C67G C68U: the “self-cleavage kobs at 2500 uM GlcN6P” value was found to be 5.08e-05 ± 1.6e-05 s⁻¹.

Take G7U U30G A33U G44C: the “self-cleavage kobs at 2500 uM GlcN6P” value is under 1e-05 s⁻¹.

Consider A15G A36U G43C, for which the “self-cleavage kobs at 2500 uM GlcN6P” value was under 1e-05 s⁻¹.

A further data set covers variants of B1. In words: self-cleavage kobs at 10000 uM GlcN6P; higher = faster cleavage; RNA array. The note with it: with glucosamine-6-phosphate. The gist of the method: as §1
On to C50G U57C C71G, for which the “self-cleavage kobs at 10000 uM GlcN6P” value came to 9.26e-05 ± 3.1e-05 s⁻¹.

With A6G A12C U56G, the “self-cleavage kobs at 10000 uM GlcN6P” value came out at 5.92e-05 ± 1.5e-05 s⁻¹.

Regarding G32U C50U, the “self-cleavage kobs at 10000 uM GlcN6P” value was under 1e-05 s⁻¹.

With A12G G43C U45C C61G, the “self-cleavage kobs at 10000 uM GlcN6P” value was under 1e-05 s⁻¹.

For the variant G26U C58U, the “self-cleavage kobs at 10000 uM GlcN6P” value came out at 7.64e-05 ± 1.4e-05 s⁻¹.

C11A A33G G35U A52G: the “self-cleavage kobs at 10000 uM GlcN6P” value was under 1e-05 s⁻¹.

As for U30C G37C G38C, the “self-cleavage kobs at 10000 uM GlcN6P” value was under 1e-05 s⁻¹.

With C8G A52G U55G C67G C68U, the “self-cleavage kobs at 10000 uM GlcN6P” value is 3.18e-05 ± 1.4e-05 s⁻¹.
